Columns and labels:
[1] = Activity measurements for determination of the temperature optimum for CHI; type: biochemical
From the text: (§1) For the purposes of the present invention especially preferred is the use of a chalcone isomerase, having one, several or all the following characteristics and/or a temperature and pH stability according to Tables 1-3:
(§2) A photometric determination allowed—for further investigation of the CHI activity—the reduction over time in the concentration of naringenin chalcone in a cell-free protein crude extract to be observed.

[2] = Temperature stability of CHI; type: biochemical
From the text: as §1, §2

[3] = Activity measurements for determination of the pH optimum of CHI; type: biochemical
From the text: as §1, §2

[4] = substrate: O=C(/C=C/c1ccc(O)cc1)c1c(O)cc(O)cc1O; test: Characterisation of the enzyme activity of the CHI following expression of the vector pET28b_CHI in E. coli; type: biochemical, Eubacterium ramulus DSM 16296; conditions: other: CHI expressed from pET28b_CHI in E. coli; substrate not given
From the text: Following expression of for example pET28b_CHI in E. coli (see above) CHI can be established both in the soluble and in the insoluble fractions.
Following purification with for example anion exchange chromatography, hydrophobic interaction chromatography, size exclusion chromatography and/or Resource Q purification the CHI can be isolated for characterization (FIG. 5 provides examples of the results of the individual purification steps following expression of the vector pET28b_CHI in E. coli).
The values in the table in Table 6 show (further) results of the chalcone isomerase activity of the expressed CHI, obtained by photometric determination (at 368 nm) in relation to the degradation of naringenin chalcone (to form […]).
as §2

B1: Eubacterium ramulus DSM 16296 chalcone isomerase (CHI), wild type, SEQ ID NO:3 (Eubacterium ramulus) (protein)
chain: MADFKFEPMRSLIYVDCVSEDYRPKLQRWIYKVHIPDSISQFEPYVTKYAFYPSFPIPPQGDRFGYARMQLTEHHWLVSDLDPRLEIKAIAETFPMDVLVWQGQIPAAAHTDAQIDSDGDAGNAARKSNNAEGNPFIFAFLPMWWEKDLKGKGRTIEDGANYRFNMTIGFPEGVDKAEGEKWLFEKVVPILQAAPECTRVLASAVKKDINGCVMDWVLEIWFENQSGWYKVMVDDMKALEKPSWAQQDAFPFLKPYHNVCSAAVADYTPSNNLANYRGYITMR
Spec. activity ([1]; 30° C.): 373.47 U/mg
Spec. activity ([1]; 37° C.): 795.04 U/mg
Spec. activity ([1]; 40° C.): 887.73 U/mg
Spec. activity ([1]; 45° C.): 1133.38 U/mg
Spec. activity ([1]; 50° C.): 748.66 U/mg
Spec. activity ([1]; RT (23° C.)): 158.39 U/mg
Spec. activity ([2]; 25° C., 0 h): 188.56 U/mg
Spec. activity ([2]; 25° C., 0.5 h): 136.70 U/mg
Spec. activity ([2]; 25° C., 1 h): 141.10 U/mg
Spec. activity ([2]; 25° C., 2 h): 152.08 U/mg
Spec. activity ([2]; 25° C., 4 h): 152.48 U/mg
Spec. activity ([2]; 25° C., 6 h): 146.46 U/mg
Spec. activity ([2]; 25° C., 24 h): 116.37 U/mg
Spec. activity ([2]; 30° C., 0 h): 188.56 U/mg
Spec. activity ([2]; 30° C., 0.5 h): 169.66 U/mg
Spec. activity ([2]; 30° C., 1 h): 158.01 U/mg
Spec. activity ([2]; 30° C., 2 h): 154.62 U/mg
Spec. activity ([2]; 30° C., 4 h): 145.77 U/mg
Spec. activity ([2]; 30° C., 6 h): 147.18 U/mg
Spec. activity ([2]; 30° C., 24 h): 119.96 U/mg
Spec. activity ([2]; 37° C., 0 h): 188.56 U/mg
Spec. activity ([2]; 37° C., 0.5 h): 155.20 U/mg
Spec. activity ([2]; 37° C., 1 h): 164.39 U/mg
Spec. activity ([2]; 37° C., 2 h): 156.17 U/mg
Spec. activity ([2]; 37° C., 4 h): 156.84 U/mg
Spec. activity ([2]; 37° C., 6 h): 156.21 U/mg
Spec. activity ([2]; 37° C., 24 h): 93.93 U/mg
Spec. activity ([2]; 41° C., 0 h): 188.56 U/mg
Spec. activity ([2]; 41° C., 0.5 h): 151.96 U/mg
Spec. activity ([2]; 41° C., 1 h): 154.22 U/mg
Spec. activity ([2]; 41° C., 2 h): 149.12 U/mg
Spec. activity ([2]; 41° C., 4 h): 146.59 U/mg
Spec. activity ([2]; 41° C., 6 h): 149.39 U/mg
Spec. activity ([2]; 41° C., 24 h): 93.30 U/mg
Spec. activity ([2]; 44° C., 0 h): 188.56 U/mg
Spec. activity ([2]; 44° C., 0.5 h): 158.12 U/mg
Spec. activity ([2]; 44° C., 1 h): 150.15 U/mg
Spec. activity ([2]; 44° C., 2 h): 129.07 U/mg
Spec. activity ([2]; 44° C., 4 h): 115.07 U/mg
Spec. activity ([2]; 44° C., 6 h): 83.35 U/mg
Spec. activity ([2]; 50° C., 0 h): 188.56 U/mg
Spec. activity ([2]; 50° C., 0.5 h): 50.49 U/mg
Spec. activity ([2]; 50° C., 1 h): 3.05 U/mg
Spec. activity ([2]; 50° C., 2 h): 2.35 U/mg
Spec. activity ([2]; RT (23° C.), 0 h): 188.56 U/mg
Spec. activity ([2]; RT (23° C.), 0.5 h): 145.67 U/mg
Spec. activity ([2]; RT (23° C.), 1 h): 148.67 U/mg
Spec. activity ([2]; RT (23° C.), 2 h): 144.05 U/mg
Spec. activity ([2]; RT (23° C.), 4 h): 146.39 U/mg
Spec. activity ([2]; RT (23° C.), 6 h): 141.06 U/mg
Spec. activity ([2]; RT (23° C.), 24 h): 125.68 U/mg
Spec. activity ([3]; pH value 6.13): 82.07 U/mg
Spec. activity ([3]; pH value 6.35): 163.43 U/mg
Spec. activity ([3]; pH value 6.4): 177.59 U/mg
Spec. activity ([3]; pH value 6.55): 169.79 U/mg
Spec. activity ([3]; pH value 6.8): 185.86 U/mg
Spec. activity ([3]; pH value 6.93): 175.37 U/mg
Spec. activity ([3]; pH value 7.12): 174.86 U/mg
Spec. activity ([3]; pH value 7.45): 173.01 U/mg
Spec. activity ([3]; pH value 7.7): 168.79 U/mg
Spec. activity ([3]; pH value 8): 152.55 U/mg
Km [4]: 36.83 µM
Vmax [4]: 107 µmol/min/mg
kcat [4]: 417 s⁻¹
kcat/Km [4]: 1.13e+07 M⁻¹ s⁻¹

— patent US9359622B2, “Method for biotechnological production of dihydrochalcones” (Symrise AG, priority 2012, dated 2016)
